Measurements published in paper PMC5397363 (Molecular microbiology, 2017).
Positions count from the first letter of the chain named. Square brackets hold non-standard residues; d marks the D form. Ends that are not written are not given here. 2Abz = Nc1ccccc1C(=O)O

Key:
Experiment in all cases: fluorescence polarisation
[1] = molecular target: Staphylococcus aureus Prp C34S (S. aureus, UniProt Q2FXS9 1-106, C34S)
[2] = molecular target: T1, Staphylococcus aureus Prp H22A (S. aureus, UniProt Q2FXS9 1-106, H22A)
T1 sequence: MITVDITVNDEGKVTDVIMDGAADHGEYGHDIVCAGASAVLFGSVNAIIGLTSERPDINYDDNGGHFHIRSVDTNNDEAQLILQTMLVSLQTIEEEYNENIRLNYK

[3] = molecular target: T2, Staphylococcus aureus Prp S38A (S. aureus, UniProt Q2FXS9 1-106, S38A)
T2 sequence: T1 sequence with A22H, S38A

Measured: binding result

B1: 2-Abz-KLNLQFFASKK-Am, fluorescent L27 cleavage-motif peptide without quencher (peptide)
peptide: [2Abz]KLNLQFFASKK-NH2
modifications: N-terminus assumed
SMILES: CC(C)C[C@H](NC(=O)[C@H](CCCCN)NC(=O)c1ccccc1N)C(=O)N[C@@H](CC(N)=O)C(=O)N[C@@H](CC(C)C)C(=O)N[C@@H](CCC(N)=O)C(=O)N[C@@H](Cc1ccccc1)C(=O)N[C@@H](Cc1ccccc1)C(=O)N[C@@H](C)C(=O)N[C@@H](CO)C(=O)N[C@@H](CCCCN)C(=O)N[C@@H](CCCCN)C(N)=O
binds: all assays above
